Data as given in paper PMC1636449 (Nucleic Acids Research, 2006).

How the values were obtained:
[1] = target: T1, Bacillus stearothermophilus DnaB helicase (Bacillus stearothermophilus, UniProt Q9X4C9 1-454); assay: SPR
T1 sequence: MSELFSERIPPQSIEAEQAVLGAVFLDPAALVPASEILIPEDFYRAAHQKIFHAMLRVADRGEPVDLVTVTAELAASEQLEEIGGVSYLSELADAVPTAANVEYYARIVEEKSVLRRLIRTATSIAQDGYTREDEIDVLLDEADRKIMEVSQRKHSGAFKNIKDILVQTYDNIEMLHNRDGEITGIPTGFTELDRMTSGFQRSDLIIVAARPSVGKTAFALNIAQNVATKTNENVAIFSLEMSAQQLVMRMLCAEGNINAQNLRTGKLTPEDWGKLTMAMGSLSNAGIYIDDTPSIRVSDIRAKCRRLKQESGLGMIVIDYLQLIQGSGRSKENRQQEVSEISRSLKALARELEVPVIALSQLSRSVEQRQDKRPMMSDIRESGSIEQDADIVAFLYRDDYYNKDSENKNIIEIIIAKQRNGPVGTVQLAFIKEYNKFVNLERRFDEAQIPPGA

[2] = target: T1, Bacillus stearothermophilus DnaB …; assay: SEC

Binder	stoichiometry N [1]	binding result [2]
Bacillus subtilis DnaI (wild type) (natural protein) MEPIGRSLQGVTGRPDFQKRLEQMKEKVMKDQDVQAFLKENEEVIDQKMIEKSLNKLYEYIEQSKNCSYCSEDENCNNLLEGYHPKLVVNGRSIDIEYYECPVKRKLDQQKKQQSLMKSMYIQQDLLGATFQQVDISDPSRLAMFQHVTDFLKSYNETGKGKGLYLYGKFGVGKTFMLAAIANELAEKEYSSMIVYVPEFVRELKNSLQDQTLEEKLNMVKTTPVLMLDDIGAESMTSWVRDEVIGTVLQHRMSQQLPTFFSSNFSPDELKHHFTYSQRGEKEEVKAARLMERILYLAAPIRLDGENRRHP	1 DnaI per stearoDnaB subunit	
B. subtilis DnaI C101A mutant (natural protein) MEPIGRSLQGVTGRPDFQKRLEQMKEKVMKDQDVQAFLKENEEVIDQKMIEKSLNKLYEYIEQSKNCSYCSEDENCNNLLEGYHPKLVVNGRSIDIEYYEAPVKRKLDQQKKQQSLMKSMYIQQDLLGATFQQVDISDPSRLAMFQHVTDFLKSYNETGKGKGLYLYGKFGVGKTFMLAAIANELAEKEYSSMIVYVPEFVRELKNSLQDQTLEEKLNMVKTTPVLMLDDIGAESMTSWVRDEVIGTVLQHRMSQQLPTFFSSNFSPDELKHHFTYSQRGEKEEVKAARLMERILYLAAPIRLDGENRRHP		binds
